# Measured values as given in the supplement of paper PMC9170038.
# Tested on: K4 kissing-loop RNA reporter
# Assay: apparent KD of K4 kissing-loop reporter; higher = weaker reporter binding
# Details: Eterna round: R107
# Method: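 RNA-MaP round R107: designed RNA switches with theophylline, tryptophan, arginine or FMN aptamers are transcribed on-chip within common flanks. They are titrated with a labelled K4 kissing-loop RNA reporter in RNA-MaP buffer (100 mM Tris pH 7.5, 80 mM KCl, 4 mM MgCl2), without ligand or with the indicated ligand. Median apparent KD per design.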
# [1] = input ligand: theophylline 20 uM
# [2] = input ligand: tryptophan 2.4 mM
# 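Further: bound reporter read as fluorescence of individual clusters on recovered sequencing chips by microscopy, with normalized cluster intensities fitted with a binding model.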
Sequence,apparent KD of K4 kissing-loop reporter (input ligand: FMN 200 uM) [nM],apparent KD of K4 kissing-loop reporter (input ligand: arginine 13.2 mM) [nM],apparent KD of K4 kissing-loop reporter (input ligand: none) [nM],apparent KD of K4 kissing-loop reporter [1] [nM],apparent KD of K4 kissing-loop reporter [2] [nM]
UGAUACCAGACUGAUACCAGCUAGUGAUGUUAGCUAAAAUCAGGGUCAAAGACCCUGUCUGGCCCUUGGCAGCAGUCUGGUAUCU [TheoBX 10 #SwitchBubble #StaticStem],137,120,134,191,120
UCCUGCAAUCUGCCACGAAAGUGGGUUGAUACCAGAGUCGAAAGACUCCCUUGGCAGCGAGUGAUGUUCGUUGCAGGUGUAUAAA [MatMod 10 - Jieux - Exclusion - Theophylline A],195,184,194,209,179
GAUAUAGUGAUGUUAUAUAGGAAGGAGUUACGAGGACCGGUACGGCCGCCACUCGAAACGAGUGAUGAUUUGGGAGAUUGGGUUG [SSTryptA.P],364,359,395,430,332
GUAGACAGGCUGCGAACCUAGUCUACAGACUAGGAUAUCAGGAAACUGAGAAGGAGUCUAGUUGCAGUGAUGUUGCAAGAAUAAU [KL-SSFMN-A25],81.3,125,94.6,135,84.7
CGCGCGCGCGCGCGCGCGCGCGCGAAUGAUACCAGUAUAUAAGAAUACCCUUGGCAGCAUAAGAAAGAUAUAGUGAUGUUGUAUA [SSTheophA.B],285,150,269,422,231
UGGCGUUGAACCGCCGAAUCGCUGUGAGAAGGAGCGGUAAAAUUGCCAGGUAGGUCGCUCACAGCUUCACAGUGAUGUUGUGGAA [Enxeisen],248,161,408,212,188
GGCAGUGAUGUUGCCUAAGCAACGCAUGCAGAGGAUAUUCGUUCGGGAAGAAGGCUGCAGCGUUCUCUCGCGAGUGAUGUUCGCG [Same State FMN A GF 23],182,137,165,165,162
GAGCGGUGGAGGUUACCGCUAUUCUGAGAAGGAGCGCAGAUGACUGCAGGUAGGUCGCUUAGAGCUUGCAGUGAUGUUGCAAGUU [Edrirama],197,177,213,193,213
AGUGCACUGUCAGGAUAUAUACAGUGAUGUUGUGUAUGUCAGCAAGUCAAAGACUUGCUCUUCUGUGUAGAAGGGACUGUGUACA [Omei KL FMN B Exc A v4],157,118,133,117,133
UGUACCGAGUCAGGAUAUGGCGUCGAAAGACGAAAACCAGUGAUGUUGGAAAUCUGCGAAAGCAGUCCAGAAGGGACUUGGUACU [FmnBS 25 #SwitchBubble #StaticStem #DoubleMagnetSystem],199,233,266,251,251
CAGGCCGAGUGAUGUUCGGUCUGAGUGAUAAAGGAUAUAAGGGAUUUUAGAAGGUUAUCUAAACAGACCAAACAUCUAUCCACUC [theeternabot_exclusion_KL_FMN_A_16],221,128,138,145,122
AGGAGCGUGGGAUGGAAAUCGCACGCUCCUCGAGGACCGGUACGGCCGCCACUCGCUCGCGCCGAGUGAUGUUCGGCCGGCGAAC [#2 Same State - Tryptophan A Attempt #11 (HarryS)],131,111,451,178,482
UGAUAGGACAGAAGGAGCGGAAGUGAUGUUUCCAAAAGGUAAGGUCGACAAAGUCGACCCUUCCAGGUAGGUCGCUGUCCUAUCU [ArgBX 11 #Palindromic #SwitchBubble #StaticStem],88.5,102,92.8,89.2,82.4
AUCGUUGUCUGAGGAUAUCGGUUAACUGUAGUGAUGUUACAGAAAAUUCAUAUAAUAUUUUCUAUUCGAGAAGGCAGACUACGUA [JR_ExcFMNB_Sub018],205,157,167,178,177
UGGGAUUUGUCAGGAUAUGAGUGCAGUGAUGUUGCACUUAAUAAAGUACAUAGGCCCUGCUGGCACUCAGAAGGGACGGUGAUGC [Lalasobeer],122,73.6,103,86.7,92.4
AGGUUUUGAUUAGGAUAUGCACUGAGGAGGAGAAUAUAGUGAUGUUAUAUAAGAGGAAGGAGUAGAGUAGAAGGGAUUGAGGUUU [SSFMNB.R],249,164,199,172,188
UUGAUAUGAUAAUAUCCUGUUUGAUAAAGACAGGAUAUAGAAAAUACUAGAAGGGUCAUUAUAUGCAGUGAUGUUGCAAAUAAGU [Exclusion FMN A Gf 23],42.2,67.3,45.7,66.2,37.6
AUGGUAUUGCGAGGAUAUCCUUCAAAUGUGACACUAACGGCAGUGAUGUUGCCGGCGUCUUUUUGAGGAGAAGGCGCGGUGUUAU [Exclusion FMN B GF 24],114,112,129,114,114
UGAUACCAGACGGCCGCCACUCCCGUAAGUCAAAGACUUACGAAGAGAGUUUUUCAGUGAUGUUGGAGGACCGGGUCUGGUAUCU [FiskerMod 16 - Jieux - Exclusion - Tryptophan B],838,618,870,850,721
AUCUGUCAAGGACAACAUUACUGAGGUGAUACCAGCAUCGAAAGAUGCCCUUGGCAGCACCAACUUGCAGUGAUGUUGCAAGUAA [BrourdMod 10 - Jieux - Exclusion - Theophylline A],346,236,332,393,299
AGUCCACUCUAAAGAGUGGACCUAAGGGAUACCAGUGAUGUUGGUCACCCUUGGCAGCCCAGGGCCCGGGAUAAACCCGGGCCCA [#09 K4 Theophylline A Exclusion],120,100,113,99,113

Sequence,apparent KD of K4 kissing-loop reporter (input ligand: FMN 200 uM) [nM],apparent KD of K4 kissing-loop reporter (input ligand: arginine 13.2 mM) [nM],apparent KD of K4 kissing-loop reporter (input ligand: none) [nM],apparent KD of K4 kissing-loop reporter [1] [nM],apparent KD of K4 kissing-loop reporter [2] [nM]
GGAUUUGAGUGAUGUUUAAAACGAGUGUCCAAGGAUAUUGCCCAAACAAGAAGGUGGGCAUGCUUUUGCGAUAAUCAACGGAGAC [theeternabot_exclusion_KL_FMN_A_9],408,666,451,606,291
UGUACCGAGUUAGGAUAUGUCGUCGAAAGACGAAAUGGAGUGAUGUUCCUUAAACUGCGAAAGCAGACAGAAGGGACUUGGUACU [FmnBS 29 U11],233,473,474,493,429
CAGCAGAGUGAUGUUCUGCUUACUGCGGAUACCAGCUUUGCCAGAGGCCCUUGGCAGCCGCACGGCUCAGUGAUGUUGGGUCACG [Same State Theophylline A GF 13],296,293,361,323,301
UGCACGGGCUCGGCCGCCACUCCCGCGGGUCGGAAGGUCCGCUACUGAGUGAUGUUCGGUUGGAGGAGGACCGGGAGCCCGUGCA [#2 Exclusion - Tryptophan B Attempt #26 (HarryS)],135,109,104,104,88.5
GGCGGCUGCGCGCAAGCGCAGCCGGCCGAUACCAGCGCGACGGCGCGCCCUUGGCAGCGGCGCCGAGUGAUGUUCGGCCUGCCGG [#2 Same State - Theophylline A Attempt #19 (HarryS)],433,380,738,418,416
AGGUUUUACGGAGGAUAUGCACUGAGGAGGAGAAUAUAGUGAUGUUAUAUAAGAGGAAGGAGAAGAGUAGAAGGCCGUGAGGUUU [SSFMNB.M],136,130,149,204,98.6
UUCUACGAGUGAUGUUCGUAGUGUAAUCGCUAGGAUAUCGUUUUUUCGAGAAGGAGCGUCGAAGUGAUACGAAAGUAUCGCUUCG [FMN A 13],151,258,300,284,284
ACACUUUACGUAGGAUAUGCGACGAGUGAUGUUCGUCAGGCGGCUCUAGAUUAAACAAGCCGCCUAGCAGAAGGACGGGCAGUGU [Teaanso],154,145,164,160,163
UGUGUUUACCUGACUCAGUGAUGUUGAGAAGGAGCGUGCAAAAGCACAGGUAGGUCGCUCAACCUAAAUUCAGGUGAGCACUAAA,270,201,255,252,264
AGACUACCACACUGUCAAUAGACAGUGAAUUAGGAUAUGCUGAUAAGCAGAAGGAGUGAUGUUCCGAGGUAGUCAAUAAAAUAAU [FmnAX 13 U30+G66],220,204,216,283,211
GUUACUUCAGAAGGAUAUUAGUAAACAACACGGUAGUGAUGUUACCGUUAUCAAGCCCGGCUUCACUAAGAAGGUCUCCACCGCG [theeternabot_sameState_KL_FMN_B_23],52,67.9,52.9,70,54.1
AGGAGCUGUCGACAAAAGUCGACAUAAACCAAGGAUAUGACGAAAGUCAGAAGGUGGUCAUAAGACCAGUGAUGUUGGUAGCUCC [FmnA 10 #SwitchBubble #K4Late],952,259,466,488,338
GAGGGCUCGGGAGGAUAUGAGUCUAGUGAUGUUAGGCGGUCCAUGCGCGUGGCGCGUUAUGCCCUUUUAGAAGGCCCGAGCCCGC [#2 Exclusion - FMN B Attempt #23 (HarryS)],109,76.4,90.5,83.3,93.8
CUCGUGGGUUUGAGAGGGCUUGUGGGAAGUGAGGAUAUUUAGGGAGAAAGAAGGCACUAUAGAAUAUAGUGAUGUUAUGUAAGGG [SSFMNA.O],466,954,492,180,348
GGGAGAGCGCGAAGGAGCGCCCUGACAGGUUGCUGCCGUGGGCAGUGAUGUUGCUCAGUCCGGCAGGUAGGUCGCGUGCUCUCCC,178,148,192,200,177
UGAUAGGACAGAAGGAGCGGGCUAGUCAAAGACUAGCAAACGUUAAUAACAGGAGUGAUGUUCCAGGUAGGUCGCUGUCCUAUCU [ArgBX 25 #SwitchBubble #StaticStem],136,120,143,138,120
AGCGUCCCUACGGCCGCCACUGGGAGUGAUGUUCCCAGGUUAGGCCUGAGGAUACUAAGGAUCGCCAGGACCGGGUAGCGACCAU [Azaonbe],88.5,81.1,80.3,69.2,92.3
GUUUGGCGGGCGGCCGCCACUCGGACGAGUCGCAGUGAUGUUGUGGUUUGCCAGUCGUCUUCAUCGAGGACCGGGUUUGUCGGGC [Exclusion Tryptophan B GF 19],495,380,600,571,496
UGGAUAUCGUUUAGUCUGGUGAGCUCAGAUACCAGACUAGCGAUGGUCCCUUGGCAGCUGAUUACGAUUGAGUGAUGUUCAAUCG [Theo A Ex t9c],168,152,172,160,158
UAAUGCAUGACGGCCGCCACUAGUACUGGAGUGAUGUUGUGGUACGGCGGCAGUUUAGGGUGGACUAGGACCGGGUCAUGCAUAU [KL-XTryp-B10 #analogue],461,314,339,305,356
UAAGAGGACCACUGCAAGAGUCCUCGAAUACGAGGACCGGUACGGCCGCCACUCGAUAACUUGCAGUGAUGUUGCAAGUAAGAAU [(T)''-(K)'-(T)'-(T1)-(T2)-(K1)-(K2)_Design1],124,129,119,144,84.4
